From patent US20080300210A1

Molecular target: cell receptor(s) in the thrips midgut (Frankliniella occidentalis)
Experiment: cell-based or functional assay

## GN-S, soluble version of the Tomato spotted wilt virus (TSWV) GN envelope/membrane glycoprotein (from UniProt P36291 35-309)
  percent of transmitting adults (thrips given an acquisition access period on GN-S mixed with purified TSWV): 8 fold
  proportion of thrips infected with virus (real time RT-PCR, insects pre-exposed to GN-S then fed on TSWV-infected plant material): 3 fold
